{
  "source": "patent US20210214447A1",
  "about": "(SHANGHAI INSTITUTE OF MATERIA MEDICA CHINESE ACADEMY OF …, published 2021)",
  "key": {"[1]": {"molecular_target": "T1, human AXL on the surface of tumor cells (human, UniProt P30530 26-894)", "T1 construct": "whole, on cells; endogenous protein of human tumor cell lines; the cell line is named under assay or readout; also called AXL on the cell surface", "T1 sequence (looked up)": "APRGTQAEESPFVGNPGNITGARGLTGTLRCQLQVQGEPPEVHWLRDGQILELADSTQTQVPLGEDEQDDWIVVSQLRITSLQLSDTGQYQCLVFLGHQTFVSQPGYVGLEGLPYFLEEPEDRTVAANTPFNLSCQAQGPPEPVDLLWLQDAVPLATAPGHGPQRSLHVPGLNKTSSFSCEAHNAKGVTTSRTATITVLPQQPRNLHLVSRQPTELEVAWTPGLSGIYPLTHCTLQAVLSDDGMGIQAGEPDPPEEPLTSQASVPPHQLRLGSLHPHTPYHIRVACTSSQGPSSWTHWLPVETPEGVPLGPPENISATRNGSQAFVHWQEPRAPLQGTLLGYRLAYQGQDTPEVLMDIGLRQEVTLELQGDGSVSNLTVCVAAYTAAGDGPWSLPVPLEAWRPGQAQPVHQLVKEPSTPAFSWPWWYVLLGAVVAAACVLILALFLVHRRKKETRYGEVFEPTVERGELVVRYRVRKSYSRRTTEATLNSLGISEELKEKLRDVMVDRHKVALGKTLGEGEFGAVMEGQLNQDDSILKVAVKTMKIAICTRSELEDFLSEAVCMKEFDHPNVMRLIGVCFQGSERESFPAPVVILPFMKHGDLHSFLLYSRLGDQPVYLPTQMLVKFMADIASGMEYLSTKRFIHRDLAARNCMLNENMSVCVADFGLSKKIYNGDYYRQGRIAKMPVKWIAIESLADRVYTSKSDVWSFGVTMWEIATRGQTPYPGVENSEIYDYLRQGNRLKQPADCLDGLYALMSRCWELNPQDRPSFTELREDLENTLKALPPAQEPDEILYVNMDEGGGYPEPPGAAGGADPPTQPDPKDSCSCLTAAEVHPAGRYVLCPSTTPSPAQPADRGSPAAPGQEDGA", "experiment": "FACS on MDA-MB-231 cells, mean EC50", "description": "(§1) Then the obtained solutions were incubated at 4° C. for 1 h, the cells were washed twice with PBS to remove unbound primary antibody, and then the target cells were incubated with 200 μL PE-labeled secondary antibody (2 μg/mL) at 4° C. for 30 min. The cells were washed twice with PBS to remove unbound secondary antibody. Finally, the cells were resuspended in 200 μL PBS, and the binding affinity of the test antibody to AXL on the cell surface was determined by a flow cytometer (FACSCalibur)"}, "[2]": {"molecular_target": "T1, human AXL on the surface of tumor cells", "experiment": "FACS, 5 ug/mL antibody, NCI-H1299 cells compared with AXL-low MDA-MB-453 cells", "description": "(§2) 3×10⁵ tumor cells were mixed well with the antibody (final concentration was 5 μg/mL), and then incubated at 4° C. for 1 hour. The cells were washed twice with PBS to remove unbound primary antibody. Then 200 μL ([…]) PE-labeled secondary antibody was added and incubated at 4° C. for 30 min. The cells were washed twice with PBS to remove unbound secondary antibodies. Finally, the cells were resuspended in 200 μL PBS. The Binding affinity of the tested antibody to AXL on the cell surface or the overall binding fluorescence intensity (MFI) of different tumor cells at the same antibody concentration was determined with a flow cytometer (FACSCalibur).\n(§3) The chimeric antibody mAb002c could specifically recognize and bind tumor cells with AXL high expression."}, "[3]": {"molecular_target": "T1, human AXL on the surface of tumor cells", "experiment": "FACS on MDA-MB-231 cells", "description": "as §1"}, "[4]": {"molecular_target": "T1, human AXL on the surface of tumor cells", "experiment": "FACS, 5 ug/mL antibody, LCLC-103H cells compared with AXL-low MDA-MB-453 cells", "description": "as §2, §3"}, "[5]": {"molecular_target": "T2, extracellular domain of human AXL protein (AXL-ECD) (human, UniProt P30530 31-449)", "T2 construct": "expressed in HEK293T cells; coated on the ELISA plate; also called AXL-ECD protein; human AXL extracellular domain protein", "T2 sequence": "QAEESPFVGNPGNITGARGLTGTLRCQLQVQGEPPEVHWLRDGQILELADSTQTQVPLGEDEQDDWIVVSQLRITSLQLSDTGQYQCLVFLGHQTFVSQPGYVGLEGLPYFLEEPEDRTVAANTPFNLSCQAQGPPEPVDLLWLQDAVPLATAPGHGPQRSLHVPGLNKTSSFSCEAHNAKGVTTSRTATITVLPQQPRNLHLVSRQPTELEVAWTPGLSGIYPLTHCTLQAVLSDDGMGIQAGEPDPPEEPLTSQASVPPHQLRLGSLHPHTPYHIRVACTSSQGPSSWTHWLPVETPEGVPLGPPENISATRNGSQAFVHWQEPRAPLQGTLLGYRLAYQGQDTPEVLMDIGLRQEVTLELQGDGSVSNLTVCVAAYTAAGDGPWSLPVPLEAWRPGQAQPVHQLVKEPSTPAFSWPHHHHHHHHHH", "experiment": "ELISA, plate-coated AXL-ECD", "description": "(§4) The extracellular domain of AXL protein (AXL-ECD) was diluted to […] with the coating solution, and coated onto ELISA plate with 100 μL/well at 4° C. overnight. The excess antigen was washed off. The plate was blocked with 1% BSA at room temperature for 2 h, then each monoclonal antibody in a 3-fold dilution was added at 100 µL/well. The plate was incubated at room temperature for 1 h; the unbound antibody was washed off, and appropriate concentration of anti-mouse secondary antibody labeled with horseradish peroxidase was added at 100 µL/well. The plate was incubated at room temperature for 0.5 h. The unbound secondary antibody was washed off. TMB Substrate was added and reacted for about 15 minutes. 1N HCL was added at 50 µL/well to stop the color reaction. Then the absorbance was measured at 450 nm and the obtained data was analyzed.\n24 humanized antibodies in Table-6 were diluted by gradient, and their affinity to AXL-ECD protein was determined by ELISA. The experimental method was referred to Example 4."}, "[6]": {"molecular_target": "T1, human AXL on the surface of tumor cells", "experiment": "FACS on MDA-MB-231 cells", "description": "as §1\n24 humanized antibodies in Table-6 were diluted by gradient, and their affinities to AXL, on the surface of MDA-MB-231 cells were determined by flow cytometer. The experimental method was referred to Example 8.", "remark": "listed apart in the source"}, "[7]": {"molecular_target": "T1, human AXL on the surface of tumor cells", "experiment": "FACS on NCI-H1299 cells", "description": "as §1\nAXL-high-expression lung cancer cells NCI-H1299 were used as target cells. 100 μL of the test antibody diluted in a 3-fold gradient was used as primary antibody, and mixed with 1×10⁵ NCI-H1299 cells suspended in 100 μL RPMI-1640 serum-free medium. The operation method was the same as above. Finally, the cells were resuspended in 200 μL PBS, and the binding affinity of the tested antibody to AXL on the cell surface was determined by a flow cytometer (FACSAria II)."}, "[8]": {"molecular_target": "T2, extracellular domain of human AXL …", "experiment": "ELISA, plate-coated AXL-ECD", "description": "as §4", "remark": "listed apart in the source"}},
  "note": "“And” between values parts separate entries of the source, which are not always exact repeats. Equal entries are not always repeated. Where two headings read alike, the source gives them in different places.",
  "data": [
    {"binder": "mAb002c (antibody, V domains shown, also called human-mouse chimeric antibody mAb002c) VH: QIQLQQSGPELVKPGASVKISCKASGYPFTDFYINWVKQKPGQGLEWIGWIYPGSGNTKYNEKFKGKATLTVDTSSSTAYMQLSSLTSEDTAVYFCARSTGFFDYWGQGTTLTVSS VL: QIVLTQSPALMSASPGEKVTMTCSASSSIGYMYWYQQKPRSSPKSWIYLTSNLASGVPARFSGSGSGTSYSLTISSMEAEDAATYYCQQWSSNPPTFGAGTKLELK", "values": [
      {"measurement": "EC50", "setting": "[1]", "result": 0.174, "unit": "nM"},
      {"measurement": "fold difference of binding rate (MFI) against MDA-MB-453 cells", "setting": "[2]", "result": 127, "unit": "times"},
      {"measurement": "Highest MFI value (FACSCalibur)", "setting": "[3]", "result": 242, "unit": "MFI"},
      {"measurement": "fold difference of binding rate (MFI) against MDA-MB-453 cells", "setting": "[4]", "result": 91, "unit": "times"},
      {"measurement": "EC50", "setting": "[5]", "result": "0.082 nM and 0.076 nM"},
      {"measurement": "EC50", "setting": "[6]", "result": "0.16 nM and 0.169 nM"},
      {"measurement": "EC50", "setting": "[7]", "result": 0.456, "unit": "nM"},
      {"measurement": "Highest MFI value (FACSAria II)", "setting": "[7]", "result": 2260, "unit": "MFI"},
      {"measurement": "EC50", "setting": "[8]", "result": 0.073, "unit": "nM"},
      {"measurement": "Highest reading (OD450 nm)", "setting": "[8]", "result": 3.79, "unit": "OD450 nm"}
    ]}
  ]
}
